Publication PMC10397247
Values belong to the binder of their own block, whether it stands above or below them.

Experiments:
[1] = target: T1, 4H1831-bH; assay: two-hybrid library CCNG1;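 note: natural log of median RNA to DNA barcode read ratio; higher means stronger binding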
T1 chain: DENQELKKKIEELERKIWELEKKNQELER

[2] = target: T2, 4H2586-bH; assay: two-hybrid library CCNG1;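 note: natural log of median RNA to DNA barcode read ratio; higher means stronger binding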
T2 chain: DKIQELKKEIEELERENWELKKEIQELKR

[3] = target: T3, 4H2627-bH; assay: two-hybrid library CCNG1;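 note: natural log of median RNA to DNA barcode read ratio; higher means stronger binding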
T3 chain: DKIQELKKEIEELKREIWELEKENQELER

[4] = target: T4, 4H2673-bH; assay: two-hybrid library CCNG1;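 note: natural log of median RNA to DNA barcode read ratio; higher means stronger binding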
T4 chain: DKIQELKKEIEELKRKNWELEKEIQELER

[5] = target: T5, 4H2702-bH; assay: two-hybrid library CCNG1;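 note: natural log of median RNA to DNA barcode read ratio; higher means stronger binding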
T5 chain: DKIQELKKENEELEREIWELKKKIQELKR

[6] = target: T6, 4H3010-bH; assay: two-hybrid library CCNG1;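 note: natural log of median RNA to DNA barcode read ratio; higher means stronger binding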
T6 chain: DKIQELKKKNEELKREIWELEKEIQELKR

[7] = target: T7, 4H3112-bH; assay: two-hybrid library CCNG1
T7 chain: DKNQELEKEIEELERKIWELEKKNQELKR

[8] = target: T8, 4H3427-bH; assay: two-hybrid library CCNG1
T8 chain: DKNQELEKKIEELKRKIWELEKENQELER

[9] = target: T9, 4H346-bH; assay: two-hybrid library CCNG1
T9 chain: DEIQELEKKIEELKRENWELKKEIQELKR

[10] = target: T10, 4H3926-bH; assay: two-hybrid library CCNG1
T10 chain: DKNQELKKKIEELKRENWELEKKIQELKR

[11] = target: T11, 4H4073-bH; assay: two-hybrid library CCNG1
T11 chain: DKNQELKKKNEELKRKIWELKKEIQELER

[12] = target: T12, 4H457-bH; assay: two-hybrid library CCNG1
T12 chain: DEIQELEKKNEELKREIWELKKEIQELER

[13] = target: T13, 4H575-bH; assay: two-hybrid library CCNG1
T13 chain: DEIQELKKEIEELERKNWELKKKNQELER

[14] = target: T14, 4H626-bH; assay: two-hybrid library CCNG1
T14 chain: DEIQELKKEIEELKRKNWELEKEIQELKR

[15] = target: T15, 4H683-bH; assay: two-hybrid library CCNG1
T15 chain: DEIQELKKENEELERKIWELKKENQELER

[16] = target: T16, 4H754-bH; assay: two-hybrid library CCNG1
T16 chain: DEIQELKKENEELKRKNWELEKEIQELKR

[17] = target: T17, 4H780-bH; assay: two-hybrid library CCNG1
T17 chain: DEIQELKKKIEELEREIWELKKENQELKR

[18] = target: T18, 4H797-bH; assay: two-hybrid library CCNG1
T18 chain: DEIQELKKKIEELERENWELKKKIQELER

[19] = target: T19, 4H855-bH; assay: two-hybrid library CCNG1
T19 chain: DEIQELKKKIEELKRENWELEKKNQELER

[20] = target: T20, 4H918-bH; assay: two-hybrid library CCNG1
T20 chain: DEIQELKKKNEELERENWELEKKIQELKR

[21] = target: T21, 4H953-bH; assay: two-hybrid library CCNG1
T21 chain: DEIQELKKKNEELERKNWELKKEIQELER

[22] = target: T22, 4H968-bH; assay: two-hybrid library CCNG1
T22 chain: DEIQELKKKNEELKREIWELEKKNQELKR

[23] = target: T23, O4; assay: two-hybrid library CCNG1
T23 chain: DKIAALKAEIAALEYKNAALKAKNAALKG

[24] = target: T24, 4H3354-AA; assay: two-hybrid library CCmax
T24 chain: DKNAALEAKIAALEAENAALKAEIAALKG

[25] = target: T25, 4H3427-AA; assay: two-hybrid library CCmax; settings: mean of both orientations
T25 chain: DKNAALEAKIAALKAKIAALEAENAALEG

[26] = target: T26, 4H3438-AA; assay: two-hybrid library CCmax
T26 chain: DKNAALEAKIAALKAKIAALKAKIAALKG

[27] = target: T27, 4H3782-AA; assay: two-hybrid library CCmax; settings: mean of both orientations
T27 chain: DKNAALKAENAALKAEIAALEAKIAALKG

[28] = target: T28, 4H3855-AA; assay: two-hybrid library CCmax; settings: mean of both orientations
T28 chain: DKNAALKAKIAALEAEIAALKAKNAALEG

[29] = target: T29, 4H4001-AA; assay: two-hybrid library CCmax; settings: mean of both orientations
T29 chain: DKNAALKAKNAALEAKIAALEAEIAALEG

[30] = target: T30, 4H568-AA; assay: two-hybrid library CCmax; settings: mean of both orientations
T30 chain: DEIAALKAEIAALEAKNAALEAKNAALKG

[31] = target: T31, 4H687-AA; assay: two-hybrid library CCmax; settings: mean of both orientations
T31 chain: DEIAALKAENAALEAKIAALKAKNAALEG

[32] = target: T32, 4H717-AA; assay: two-hybrid library CCmax; settings: mean of both orientations
T32 chain: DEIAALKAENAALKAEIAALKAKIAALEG

[33] = target: T33, 4H797-AA; assay: two-hybrid library CCmax; settings: mean of both orientations
T33 chain: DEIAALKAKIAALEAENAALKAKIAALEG

[34] = target: T34, 4H883-AA; assay: two-hybrid library CCmax; settings: mean of both orientations
T34 chain: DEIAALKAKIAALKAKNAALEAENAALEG

[35] = target: T35, 4H918-AA; assay: two-hybrid library CCmax; settings: mean of both orientations
T35 chain: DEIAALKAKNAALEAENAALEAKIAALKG

[36] = target: T36, 4H953-AA; assay: two-hybrid library CCmax; settings: mean of both orientations
T36 chain: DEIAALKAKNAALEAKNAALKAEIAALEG

[37] = target: T37, 4H967-AA; assay: two-hybrid library CCmax; settings: mean of both orientations
T37 chain: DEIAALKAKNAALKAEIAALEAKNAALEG

[38] = target: T38, P5mS; assay: two-hybrid library CCNG1
T38 chain: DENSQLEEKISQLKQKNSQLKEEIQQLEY

[39] = target: T39, P6mS; assay: two-hybrid library CCNG1
T39 chain: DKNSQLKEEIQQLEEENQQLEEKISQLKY

[40] = target: T40, P7mS; assay: two-hybrid library CCNG1
T40 chain: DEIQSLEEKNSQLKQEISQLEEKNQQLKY

[41] = target: T41, P8mS; assay: two-hybrid library CCNG1
T41 chain: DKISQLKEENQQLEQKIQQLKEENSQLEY

[42] = target: T42, P9mS; assay: two-hybrid library CCNG1
T42 chain: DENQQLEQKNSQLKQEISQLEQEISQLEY

- interaction score [1]: -0.611
- interaction score [2]: -1.54
- interaction score [3]: 1.87
- interaction score [4]: 0.349
- interaction score [5]: 0.297
- interaction score [6]: 1.32
- interaction score [7]: -0.582
- interaction score [8]: 0.584
- interaction score [9]: 0.11
- interaction score [10]: -0.549
- interaction score [11]: -0.216
- interaction score [12]: 0.724
- interaction score [13]: -1.81
- interaction score [14]: 1.02
- interaction score [15]: -0.934
- interaction score [16]: 0.0674
- interaction score [17]: 0.511
- interaction score [18]: -1.12
- interaction score [19]: -0.184
- interaction score [20]: -0.221
- interaction score [21]: -0.749
- interaction score [22]: -2.37
- interaction score [23]: -1.48
B1: 4H1831-bH (peptide)
chain: DENQELKKKIEELERKIWELEKKNQELER

- interaction score [24]: 2.03
- interaction score [25]: -1.79
- interaction score [26]: -0.709
- interaction score [27]: -1.79
- interaction score [28]: -1.85
- interaction score [29]: -1.64
- interaction score [30]: -1.54
- interaction score [31]: -1.69
- interaction score [32]: -1.69
- interaction score [33]: -0.991
- interaction score [34]: -2
- interaction score [35]: -1.56
- interaction score [36]: -1.6
- interaction score [37]: -1.42
B2: 4H3354-AA (peptide)
chain: DKNAALEAKIAALEAENAALKAEIAALKG

- interaction score [38]: -1.66
- interaction score [39]: -0.081
- interaction score [40]: -1.25
- interaction score [41]: -1.17
- interaction score [42]: -2.82
B3: P5mS (peptide)
chain: DENSQLEEKISQLKQKNSQLKEEIQQLEY
